Reference: article PMC2756588

T1: Boi1, P38041
T1 sequence (P38041 1-86, looked up): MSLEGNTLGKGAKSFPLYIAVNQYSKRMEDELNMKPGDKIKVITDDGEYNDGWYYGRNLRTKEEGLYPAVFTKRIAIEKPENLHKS

T2: Bzz1-2, P38822
T2 sequence (P38822 568-633, looked up): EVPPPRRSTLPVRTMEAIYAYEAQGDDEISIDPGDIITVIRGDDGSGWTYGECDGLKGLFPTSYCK

T3: Hse1, P38753
T3 sequence (P38753 208-285, looked up): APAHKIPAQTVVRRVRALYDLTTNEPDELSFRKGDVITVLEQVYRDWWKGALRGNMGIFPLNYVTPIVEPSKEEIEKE

T4: Fus1, P11710
T4 sequence (P11710 432-512, looked up): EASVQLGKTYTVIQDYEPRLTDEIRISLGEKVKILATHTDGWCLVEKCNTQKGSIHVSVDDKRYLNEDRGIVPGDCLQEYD

T5: Myo5, Q04439
T5 sequence (Q04439 1072-1160, looked up): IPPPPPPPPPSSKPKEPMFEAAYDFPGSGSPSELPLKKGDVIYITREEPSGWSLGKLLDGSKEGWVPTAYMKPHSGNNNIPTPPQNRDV

T6: Lsb4, P32793
T6 sequence (P32793 402-468, looked up): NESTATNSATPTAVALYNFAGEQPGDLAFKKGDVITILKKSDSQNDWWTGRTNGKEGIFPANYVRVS

T7: Cdc25, P04821
T7 sequence (P04821 50-136, looked up): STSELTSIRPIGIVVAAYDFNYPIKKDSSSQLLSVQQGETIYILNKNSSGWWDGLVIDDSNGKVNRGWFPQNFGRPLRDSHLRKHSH

T8: Boi2, P39969
T8 sequence (P39969 32-116, looked up): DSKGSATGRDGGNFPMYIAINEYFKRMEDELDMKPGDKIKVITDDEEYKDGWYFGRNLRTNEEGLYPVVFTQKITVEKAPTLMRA

T9: Bbc1, P47068
T9 sequence (P47068 1-78, looked up): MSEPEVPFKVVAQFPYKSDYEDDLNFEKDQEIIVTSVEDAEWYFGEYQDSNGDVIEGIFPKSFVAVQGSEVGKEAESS

T10: Pex13, P80667
T10 sequence (P80667 295-386, looked up): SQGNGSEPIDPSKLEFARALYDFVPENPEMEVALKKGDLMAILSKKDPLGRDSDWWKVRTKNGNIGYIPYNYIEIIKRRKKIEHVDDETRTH

T11: Sla1-2, P32790
T11 sequence (P32790 60-140, looked up): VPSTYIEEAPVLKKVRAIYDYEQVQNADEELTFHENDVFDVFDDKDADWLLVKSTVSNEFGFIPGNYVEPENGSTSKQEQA

T12: Cyk3, Q07533
T12 sequence (Q07533 1-83, looked up): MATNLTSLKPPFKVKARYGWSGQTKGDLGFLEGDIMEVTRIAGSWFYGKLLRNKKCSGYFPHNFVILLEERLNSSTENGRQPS

T13: Nbp2, Q12163
T13 sequence (Q12163 103-180, looked up): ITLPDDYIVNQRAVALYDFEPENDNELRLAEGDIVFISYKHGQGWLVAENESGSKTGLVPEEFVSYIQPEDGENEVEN

T14: Pin3, Q06449
T14 sequence (Q06449 53-122, looked up): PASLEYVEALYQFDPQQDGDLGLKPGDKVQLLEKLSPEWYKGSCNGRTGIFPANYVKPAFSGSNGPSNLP

T15: Lsb3, P43603
T15 sequence (P43603 385-451, looked up): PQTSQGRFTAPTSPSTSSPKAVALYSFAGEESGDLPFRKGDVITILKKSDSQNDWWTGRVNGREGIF

T16: Abp1, P15891
T16 sequence (P15891 535-592, looked up): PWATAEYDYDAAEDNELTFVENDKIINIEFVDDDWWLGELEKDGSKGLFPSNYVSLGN

T17: Sla1-3, P32790
T17 sequence (P32790 344-424, looked up): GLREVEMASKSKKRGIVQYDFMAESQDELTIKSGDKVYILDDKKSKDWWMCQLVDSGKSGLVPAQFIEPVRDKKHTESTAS

T18: Bud14, P27637
T18 sequence (P27637 247-328, looked up): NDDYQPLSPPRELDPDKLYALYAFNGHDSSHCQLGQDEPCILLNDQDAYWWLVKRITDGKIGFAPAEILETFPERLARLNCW

T19: Lsb1, P53281
T19 sequence (P53281 45-122, looked up): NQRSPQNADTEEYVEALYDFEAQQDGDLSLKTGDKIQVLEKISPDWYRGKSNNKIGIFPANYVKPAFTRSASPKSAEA

T20: Bzz1-1, P38822
T20 sequence (P38822 478-572, looked up): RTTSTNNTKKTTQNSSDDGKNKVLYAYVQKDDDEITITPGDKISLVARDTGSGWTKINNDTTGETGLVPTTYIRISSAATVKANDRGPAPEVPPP

T21: Hof1, Q05080
T21 sequence (Q05080 590-669, looked up): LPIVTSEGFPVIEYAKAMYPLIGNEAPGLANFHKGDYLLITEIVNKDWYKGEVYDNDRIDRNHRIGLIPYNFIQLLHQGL

B1: unnamed (peptide)
chain: KRRTSLFPWLHKPGI
B2: unnamed (peptide)
chain: GKLKHIPRRPYEIER
B3: unnamed (peptide)
chain: RKQRSIPLSPIVPES
B4: unnamed (peptide)
chain: KLSRGRYGLPLSSRP

These binders were tested against T1, Boi1, P38041 (assay: SPOT array). Settings: median of control spots 1162.

Binder	SPOT intensity
B1	3
B2	0
B3	1
B4	4

These binders were tested against T2, Bzz1-2, P38822 (assay: SPOT array). Settings: median of control spots 4538.

Binder	SPOT intensity
B1	3
B2	2
B3	5
B4	7

These binders were tested against Sho1, P40073 (assay: SPOT array). Settings: median of control spots 1148.
Chain of Sho1, P40073 (P40073 287-367): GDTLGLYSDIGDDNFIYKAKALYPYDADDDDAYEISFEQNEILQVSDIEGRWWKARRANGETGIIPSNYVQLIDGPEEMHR

Binder	SPOT intensity
B1	61
B2	9
B3	49
B4	31

What follows are binders tested against T3, Hse1, P38753 (assay: SPOT array). Settings: median of control spots 1727.

Binder	SPOT intensity
B1	19
B2	1
B3	0
B4	10

These binders were tested against T4, Fus1, P11710 (assay: SPOT array). Settings: median of control spots 1200.

Binder	SPOT intensity
B1	31
B2	0
B3	17
B4	3

Each binder was assayed against T5, Myo5, Q04439 (assay: SPOT array). Settings: median of control spots 471.

Binder	SPOT intensity
B1	0
B2	0
B3	2
B4	0

What follows are binders tested against T6, Lsb4, P32793 (assay: SPOT array). Settings: median of control spots 397.

Binder	SPOT intensity
B1	0
B2	0
B3	9
B4	0

These binders were tested against Bem1-1, P29366 (assay: SPOT array). Settings: median of control spots 4282.
Chain of Bem1-1, P29366 (P29366 55-141): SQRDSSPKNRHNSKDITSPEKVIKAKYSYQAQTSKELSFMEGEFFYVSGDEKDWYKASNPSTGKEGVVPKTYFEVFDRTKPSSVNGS

Binder	SPOT intensity
B1	0
B2	0
B3	0
B4	1

Each binder was assayed against T7, Cdc25, P04821 (assay: SPOT array). Settings: median of control spots 969.

Binder	SPOT intensity
B1	18
B2	0
B3	1
B4	12

These binders were tested against T8, Boi2, P39969 (assay: SPOT array). Settings: median of control spots 1161.

Binder	SPOT intensity
B1	0
B2	0
B3	1
B4	1

What follows are binders tested against T9, Bbc1, P47068 (assay: SPOT array). Settings: median of control spots 796.

Binder	SPOT intensity
B1	39
B2	13
B3	1
B4	9

The binders below were run against Myo3, P36006 (assay: SPOT array). Settings: median of control spots 468.

Binder	SPOT intensity
B1	0
B2	0
B3	4
B4	1

Each binder was assayed against T10, Pex13, P80667 (assay: SPOT array). Settings: median of control spots 1341.

Binder	SPOT intensity
B1	4
B2	2
B3	2
B4	3

These binders were tested against T11, Sla1-2, P32790 (assay: SPOT array). Settings: median of control spots 712.

Binder	SPOT intensity
B1	0
B2	0
B3	0
B4	1

What follows are binders tested against T12, Cyk3, Q07533 (assay: SPOT array). Settings: median of control spots 1451.

Binder	SPOT intensity
B1	0
B2	0
B3	0
B4	0

The binders below were run against GST (assay: SPOT array). Settings: median of control spots 978.

Binder	SPOT intensity
B1	0
B2	1
B3	1
B4	0

The binders below were run against T13, Nbp2, Q12163 (assay: SPOT array). Settings: median of control spots 357.

Binder	SPOT intensity
B1	57
B2	0
B3	0
B4	2

These binders were tested against T14, Pin3, Q06449 (assay: SPOT array). Settings: median of control spots 2171.

Binder	SPOT intensity
B1	0
B2	4
B3	7
B4	7

These binders were tested against T15, Lsb3, P43603 (assay: SPOT array). Settings: median of control spots 406.

Binder	SPOT intensity
B1	0
B2	0
B3	6
B4	4

Each binder was assayed against Rvs167, P39743 (assay: SPOT array). Settings: median of control spots 2707.
Chain of Rvs167, P39743 (P39743 419-482): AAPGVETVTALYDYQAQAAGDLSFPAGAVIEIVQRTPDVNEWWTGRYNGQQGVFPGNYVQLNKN

Binder	SPOT intensity
B1	0
B2	1
B3	0
B4	3

Each binder was assayed against T16, Abp1, P15891 (assay: SPOT array). Settings: median of control spots 935.

Binder	SPOT intensity
B1	25
B2	4
B3	48
B4	26

The binders below were run against T17, Sla1-3, P32790 (assay: SPOT array). Settings: median of control spots 5475.

Binder	SPOT intensity
B1	20
B2	16
B3	17
B4	31

Each binder was assayed against T18, Bud14, P27637 (assay: SPOT array). Settings: median of control spots 956.

Binder	SPOT intensity
B1	3
B2	0
B3	1
B4	4

What follows are binders tested against T19, Lsb1, P53281 (assay: SPOT array). Settings: median of control spots 388.

Binder	SPOT intensity
B1	0
B2	5
B3	2
B4	175

Each binder was assayed against T20, Bzz1-1, P38822 (assay: SPOT array). Settings: median of control spots 4446.

Binder	SPOT intensity
B1	0
B2	0
B3	0
B4	0

These binders were tested against Bem1-2, P29366 (assay: SPOT array). Settings: median of control spots 4347.
Chain of Bem1-2, P29366 (P29366 139-227): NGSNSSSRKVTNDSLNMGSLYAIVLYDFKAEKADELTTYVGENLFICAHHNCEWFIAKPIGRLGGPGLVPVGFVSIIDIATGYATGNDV

Binder	SPOT intensity
B1	0
B2	0
B3	0
B4	0

Each binder was assayed against T21, Hof1, Q05080 (assay: SPOT array). Settings: median of control spots 4086.

Binder	SPOT intensity
B1	5
B2	1
B3	0
B4	8
